The text below walks through data of patent publication US20180193423A1 (LONGEVITY BIOTECH, published 2018).

Test in all cases: cell-based or functional assay
The target in one test is T1, VPAC2 receptor (UniProt P41587 24-438, limits assumed).
T1 sequence (looked up): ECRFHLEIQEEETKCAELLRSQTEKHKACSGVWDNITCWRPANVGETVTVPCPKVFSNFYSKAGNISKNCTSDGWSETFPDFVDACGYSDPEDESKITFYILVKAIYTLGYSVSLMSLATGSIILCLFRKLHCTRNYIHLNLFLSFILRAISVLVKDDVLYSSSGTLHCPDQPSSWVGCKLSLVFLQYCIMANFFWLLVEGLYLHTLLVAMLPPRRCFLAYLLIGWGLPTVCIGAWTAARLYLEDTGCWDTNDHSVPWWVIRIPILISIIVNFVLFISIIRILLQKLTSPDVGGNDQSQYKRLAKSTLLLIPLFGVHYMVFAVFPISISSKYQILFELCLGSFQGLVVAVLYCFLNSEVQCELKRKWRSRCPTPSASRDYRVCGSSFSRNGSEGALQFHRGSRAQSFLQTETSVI

Test [1] addresses T2, VPAC1 receptor (UniProt P32241 31-457, limits assumed).
T2 sequence (looked up): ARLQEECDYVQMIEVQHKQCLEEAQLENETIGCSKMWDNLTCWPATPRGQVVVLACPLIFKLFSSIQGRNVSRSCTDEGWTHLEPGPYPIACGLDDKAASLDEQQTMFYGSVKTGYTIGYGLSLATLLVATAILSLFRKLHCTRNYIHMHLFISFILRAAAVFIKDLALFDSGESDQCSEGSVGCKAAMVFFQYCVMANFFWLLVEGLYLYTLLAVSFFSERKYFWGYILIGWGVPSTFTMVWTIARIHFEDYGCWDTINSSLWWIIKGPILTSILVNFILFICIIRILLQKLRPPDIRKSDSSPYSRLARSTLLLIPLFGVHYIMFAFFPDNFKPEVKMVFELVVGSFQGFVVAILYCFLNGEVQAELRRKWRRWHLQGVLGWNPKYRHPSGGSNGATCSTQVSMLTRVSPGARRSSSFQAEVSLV

The target of test [2] is T2, VPAC1 receptor. This is another data set of the same source.

Where no end group is shown, it is not given here. [ ]: non-standard residue; d: D form. ACPC = 2-aminocyclopentanecarboxylic acid; β3hT = C[C@@H](O)[C@H](N)CC(=O)O; β3hN = NC(=O)C[C@H](N)CC(=O)O; β3hL = CC(C)C[C@H](N)CC(=O)O; β3hK = NCCCC[C@H](N)CC(=O)O; β3hV = CC(C)[C@H](N)CC(=O)O; β3hD = NC(CC(=O)O)CC(=O)O; β3hS = N[C@@H](CO)CC(=O)O

As to H[dF]DA[ACPC]FTDNY[β3hT]RLR[β3hK]QLA[β3hV]KKY[β3hL]NAI[β3hL]N (not fully specified (C-terminus); printed as HfDAxFTDNYtRLRkQLAvKKYlNAIlN) [LBT-V127], in the test with VPAC2 receptor, the “EC50 vpac2 (Molar), cell-based cAMP assay” value (from here on “EC50 vpac2 (Molar)”) is over 1 µM. Also, in the test with VPAC1 receptor [1], the “EC 50 vpac1 (Molar), cell-based cAMP assay” value (“EC 50 vpac1 (Molar)” for short) worked out at 0.0893 µM.

HS[β3hD]AVF[β3hT]DNY[β3hT]RLR[β3hK]QLA[β3hV]KKY[β3hL]NAI[β3hL]N (not fully specified (C-terminus); printed as HSdAVFtDNYtRLRkQLAvKKYlNAIlN) [LBT-V107]: in the test with VPAC2 receptor, the “EC50 vpac2 (Molar)” value is over 1 µM. Further, the “EC 50 vpac1 (Molar)” value with VPAC1 receptor [1] was over 1 µM.

Consider H[β3hS]DA[β3hV]FTDNY[β3hT]RLR[β3hK]QLA[β3hV]KKY[β3hL]NAI[β3hL]N (not fully specified (C-terminus); printed as HsDAvFTDNYtRLRkQLAvKKYlNAIlN) [LBT-V105], for which, in the test with VPAC2 receptor, the “EC50 vpac2 (Molar)” value is 0.716 µM. Moreover, the “EC 50 vpac1 (Molar)” value with VPAC1 receptor [1] came out at 0.0644 µM.

With H[dF][β3hD]AVF[β3hT]DNY[β3hT]RLR[β3hK]QLA[β3hV]KKY[β3hL]NAI[β3hL]N (not fully specified (C-terminus); printed as HfdAVFtDNYtRLRkQLAvKKYlNAIlN) [LBT-V130], the “EC50 vpac2 (Molar)” value in the test with VPAC2 receptor amounted to 0.609 µM. The “EC 50 vpac1 (Molar)” value with VPAC1 receptor [1] came out at 0.912 µM.

Consider H[ACPC]DA[ACPC]FTDNY[β3hT]RLR[β3hK]QLA[β3hV]KKY[β3hL]NAI[β3hL]N (not fully specified (C-terminus); printed as HxDAxFTDNYtRLRkQLAvKKYlNAIlN) [LBT-V103], for which the “EC50 vpac2 (Molar)” value with VPAC2 receptor was found to be 0.0796 µM. The “EC 50 vpac1 (Molar)” value in the test with VPAC1 receptor [1] was 0.000358 µM.

Turning to H[ACPC]DAVFTDNY[β3hT]RLR[β3hK]QLA[β3hV]KKY[β3hL]NAI[β3hL]N (not fully specified (C-terminus); printed as HxDAVFTDNYtRLRkQLAvKKYlNAIlN) [LBT-V102], the “EC50 vpac2 (Molar)” value with VPAC2 receptor amounted to 4.9 µM. For the same molecule, in the test with VPAC1 receptor [1], the “EC 50 vpac1 (Molar)” value amounted to 0.00566 µM.

In the case of H[dF]DAVFTDNY[β3hT]RLR[β3hK]QLA[β3hV]KKY[β3hL]NAI[β3hL]N (not fully specified (C-terminus); printed as HfDAVFTDNYtRLRkQLAvKKYlNAIlN) [LBT-V126], the “EC50 vpac2 (Molar)” value with VPAC2 receptor worked out at 0.344 µM. The “EC 50 vpac1 (Molar)” value with VPAC1 receptor [1] came out at 619 µM.

Turning to H[dF]DA[β3hV]FTD[β3hN]Y[β3hT]RLR[β3hK]QLA[β3hV]KKY[β3hL]NAI[β3hL]N (not fully specified (C-terminus); printed as HfDAvFTDnYtRLRkQLAvKKYlNAIlN) [LBT-V129], in the test with VPAC2 receptor, the “EC50 vpac2 (Molar)” value came out at 0.989 µM. Also, in the test with VPAC1 receptor [1], the “EC 50 vpac1 (Molar)” value is over 1 µM.

Regarding H[β3hS]DA[β3hV]FTD[β3hN]Y[β3hT]RLR[β3hK]QLA[β3hV]KKY[β3hL]NAI[β3hL]N (not fully specified (C-terminus); printed as HsDAvFTDnYtRLRkQLAvKKYlNAIlN) [LBT-V106], in the test with VPAC2 receptor, the “EC50 vpac2 (Molar)” value came out at 0.503 µM. In addition, in the test with VPAC1 receptor [1], the “EC 50 vpac1 (Molar)” value is 298 µM.

With H[dF]DA[β3hV]FTDNY[β3hT]RLR[β3hK]QLA[β3hV]KKY[β3hL]NAI[β3hL]N (not fully specified (C-terminus); printed as HfDAvFTDNYtRLRkQLAvKKYlNAIlN) [LBT-V128], the “EC50 vpac2 (Molar)” value in the test with VPAC2 receptor is 0.0503 µM. Further, the “EC 50 vpac1 (Molar)” value with VPAC1 receptor [1] was found to be 0.0712 µM.

For the molecule HSDAVFTDNY[β3hT]RLR[β3hK]QLA[β3hV]KKY[β3hL]NAI[β3hL]N (not fully specified (C-terminus); printed as HSDAVFTDNYtRLRkQLAvKKYlNAIlN) [LBT-V101], in the test with VPAC1 receptor [2], the “EC50 of ligand mediated receptor internalization (chemiluminescent signal, PathHunter eXpress CHO-K1 VIPR1 cells)” value was found to be 0.0102 µM. Besides, in the test with VPAC2 receptor, the “EC50 vpac2 (Molar)” value came to 8260 µM. Besides, the “EC 50 vpac1 (Molar)” value with VPAC1 receptor [1] was 0.00217 µM.

As to H[ACPC]DA[β3hV]FTDNY[β3hT]RLR[β3hK]QLA[β3hV]KKY[β3hL]NAI[β3hL]N (not fully specified (C-terminus); printed as HxDAvFTDNYtRLRkQLAvKKYlNAIlN) [LBT-V104], in the test with VPAC2 receptor, the “EC50 vpac2 (Molar)” value came out at 0.262 µM. Besides, the “EC 50 vpac1 (Molar)” value with VPAC1 receptor [1] turned out to be 0.00443 µM.
